From article PMC9482650, “Quantitative fragmentomics allow affinity mapping of interactomes” (Nature Communications, 2022)

T1: GRIP1_5, Q9Y3R0
T1 sequence (Q9Y3R0 568-668, limits assumed, looked up): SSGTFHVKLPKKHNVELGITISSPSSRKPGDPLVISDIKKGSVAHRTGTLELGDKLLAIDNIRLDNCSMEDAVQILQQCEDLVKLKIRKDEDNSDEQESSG

T2: LIN7C, Q9NUP9
T2 sequence (Q9NUP9 88-185, limits assumed, looked up): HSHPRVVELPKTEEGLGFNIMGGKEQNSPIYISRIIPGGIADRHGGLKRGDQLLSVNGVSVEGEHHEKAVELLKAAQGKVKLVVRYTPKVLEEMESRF

T3: SNTB1, Q13884
T3 sequence (Q13884 107-205, limits assumed, looked up): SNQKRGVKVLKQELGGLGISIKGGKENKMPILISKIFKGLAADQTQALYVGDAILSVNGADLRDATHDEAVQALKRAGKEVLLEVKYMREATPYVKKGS

T4: MPDZ_5, O75970
T4 sequence (O75970 695-796, limits assumed, looked up): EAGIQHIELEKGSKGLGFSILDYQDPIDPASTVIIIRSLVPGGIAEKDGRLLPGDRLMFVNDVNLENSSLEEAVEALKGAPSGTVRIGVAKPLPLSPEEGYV

T5: SHANK1, Q9Y566
T5 sequence (Q9Y566 658-767, limits assumed, looked up): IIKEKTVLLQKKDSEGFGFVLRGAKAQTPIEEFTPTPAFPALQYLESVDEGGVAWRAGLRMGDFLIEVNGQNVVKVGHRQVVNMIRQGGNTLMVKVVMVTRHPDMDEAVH

T6: SIPA1L2, Q9P2F8
T6 sequence (Q9P2F8 945-1036, limits assumed, looked up): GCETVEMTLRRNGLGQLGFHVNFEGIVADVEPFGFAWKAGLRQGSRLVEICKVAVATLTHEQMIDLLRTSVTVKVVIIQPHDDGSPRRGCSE

T7: DVL3, Q92997
T7 sequence (Q92997 244-331, limits assumed, looked up): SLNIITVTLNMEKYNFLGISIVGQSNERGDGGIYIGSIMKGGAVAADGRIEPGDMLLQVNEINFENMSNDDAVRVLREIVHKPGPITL

T8: DLG3_2, Q92796
T8 sequence (Q92796 221-321, limits assumed, looked up): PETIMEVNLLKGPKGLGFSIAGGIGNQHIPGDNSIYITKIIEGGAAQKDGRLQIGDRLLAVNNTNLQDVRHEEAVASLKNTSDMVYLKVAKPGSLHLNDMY

T9: DFNB31_3, Q9P202
T9 sequence (Q9P202 811-907, limits assumed, looked up): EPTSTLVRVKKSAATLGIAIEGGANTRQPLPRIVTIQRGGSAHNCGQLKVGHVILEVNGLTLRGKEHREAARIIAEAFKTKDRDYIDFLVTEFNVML

T10: LNX2_2, Q8N448
T10 sequence (Q8N448 334-432, limits assumed, looked up): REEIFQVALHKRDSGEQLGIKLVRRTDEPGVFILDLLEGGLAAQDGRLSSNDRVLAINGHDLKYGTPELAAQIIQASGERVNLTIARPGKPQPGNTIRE

T11: NHERF3_3, Q5T2W1
T11 sequence (Q5T2W1 238-333, limits assumed, looked up): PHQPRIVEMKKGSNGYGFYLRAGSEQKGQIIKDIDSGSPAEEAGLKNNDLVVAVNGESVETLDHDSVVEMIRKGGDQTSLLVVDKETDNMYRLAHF

T12: NHERF3_4, Q5T2W1
T12 sequence (Q5T2W1 373-468, limits assumed, looked up): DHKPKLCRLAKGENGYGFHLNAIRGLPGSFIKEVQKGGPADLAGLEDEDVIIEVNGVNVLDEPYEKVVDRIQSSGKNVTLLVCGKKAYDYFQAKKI

B1: SLC1A1, P43005 (peptide)
chain: TISFTQTSQF
B2: RPS6KA3, P51812 (peptide)
chain: GIKKITSTAL
B3: KIRREL2, Q6UWL6 (peptide)
chain: PSHPRLQTHV
B4: GRIA2, P42262 (peptide)
chain: NVYGIESVKI

target: MAGI3_2, Q5TCQ9; assay: holdup assay; parameters: key: below the threshold = too weak to quantify, mostly under pKd 3.1 to 4; conditions: plain residues with an end cap or a label only (N-terminal biotin on a linker: ado-ado)
Sequence (Q5TCQ9 398-503): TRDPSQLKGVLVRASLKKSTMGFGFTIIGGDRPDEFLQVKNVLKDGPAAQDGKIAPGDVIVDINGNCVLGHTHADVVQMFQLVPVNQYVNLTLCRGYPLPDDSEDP

Binder | pKd
B1 | below the threshold
B2 | 4.08
B3 | 5.1
B4 | 3.62

target: SCRIB_2, Q14160; assay: holdup assay; parameters: key: below the threshold = too weak to quantify, mostly under pKd 3.1 to 4; conditions: plain residues with an end cap or a label only (N-terminal biotin on a linker: ado-ado)
Sequence (Q14160 857-960): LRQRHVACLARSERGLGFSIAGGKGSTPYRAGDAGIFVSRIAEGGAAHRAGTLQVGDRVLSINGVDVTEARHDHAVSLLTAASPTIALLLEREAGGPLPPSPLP

Binder | pKd
B1 | below the threshold
B2 | 3.49
B3 | 3.76
B4 | 3.49

target: T1, GRIP1_5, Q9Y3R0; assay: holdup assay; parameters: key: below the threshold = too weak to quantify, mostly under pKd 3.1 to 4; conditions: plain residues with an end cap or a label only (N-terminal biotin on a linker: ado-ado)

Binder | pKd
B1 | below the threshold
B2 | below the threshold
B3 | below the threshold
B4 | 3.5

target: FRMPD2_3, Q68DX3; assay: holdup assay; parameters: key: below the threshold = too weak to quantify, mostly under pKd 3.1 to 4; conditions: plain residues with an end cap or a label only (N-terminal biotin on a linker: ado-ado)
Sequence (Q68DX3 1073-1166): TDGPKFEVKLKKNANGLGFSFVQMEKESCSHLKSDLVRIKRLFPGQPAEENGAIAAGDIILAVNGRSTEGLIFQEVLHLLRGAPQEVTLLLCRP

Binder | pKd
B1 | below the threshold
B2 | 3.5
B3 | below the threshold
B4 | 3.49

target: GRIP2_3, Q9C0E4; assay: holdup assay; parameters: key: below the threshold = too weak to quantify, mostly under pKd 3.1 to 4; conditions: plain residues with an end cap or a label only (N-terminal biotin on a linker: ado-ado)
Sequence (Q9C0E4 238-339): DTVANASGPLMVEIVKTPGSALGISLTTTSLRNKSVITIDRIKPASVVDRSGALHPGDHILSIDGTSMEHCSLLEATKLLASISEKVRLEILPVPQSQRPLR

Binder | pKd
B1 | below the threshold
B2 | 3.56
B3 | below the threshold
B4 | below the threshold

target: T2, LIN7C, Q9NUP9; assay: holdup assay; parameters: key: below the threshold = too weak to quantify, mostly under pKd 3.1 to 4; conditions: plain residues with an end cap or a label only (N-terminal biotin on a linker: ado-ado)

Binder | pKd
B1 | below the threshold
B2 | below the threshold
B3 | 4
B4 | below the threshold

target: T3, SNTB1, Q13884; assay: holdup assay; parameters: key: below the threshold = too weak to quantify, mostly under pKd 3.1 to 4; conditions: plain residues with an end cap or a label only (N-terminal biotin on a linker: ado-ado)

Binder | pKd
B1 | below the threshold
B2 | 4.23
B3 | 3.48
B4 | 3.51

target: T4, MPDZ_5, O75970; assay: holdup assay; parameters: key: below the threshold = too weak to quantify, mostly under pKd 3.1 to 4; conditions: plain residues with an end cap or a label only (N-terminal biotin on a linker: ado-ado)

Binder | pKd
B1 | below the threshold
B2 | below the threshold
B3 | below the threshold
B4 | below the threshold

target: T5, SHANK1, Q9Y566; assay: holdup assay; parameters: key: below the threshold = too weak to quantify, mostly under pKd 3.1 to 4; conditions: plain residues with an end cap or a label only (N-terminal biotin on a linker: ado-ado)

Binder | pKd
B1 | 4.61
B2 | 5.16
B3 | 3.84
B4 | 3.9

target: GORASP2, Q9H8Y8; assay: holdup assay; parameters: key: below the threshold = too weak to quantify, mostly under pKd 3.1 to 4; conditions: plain residues with an end cap or a label only (N-terminal biotin on a linker: ado-ado)

Binder | pKd
B1 | below the threshold
B2 | below the threshold
B3 | 3.55
B4 | 4.18

target: GRID2IP_1, A4D2P6; assay: holdup assay; parameters: key: below the threshold = too weak to quantify, mostly under pKd 3.1 to 4; conditions: plain residues with an end cap or a label only (N-terminal biotin on a linker: ado-ado)
Sequence (A4D2P6 1-87): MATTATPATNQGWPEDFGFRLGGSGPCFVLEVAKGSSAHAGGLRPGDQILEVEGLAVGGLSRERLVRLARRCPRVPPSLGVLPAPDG

Binder | pKd
B1 | below the threshold
B2 | below the threshold
B3 | below the threshold
B4 | below the threshold

target: T6, SIPA1L2, Q9P2F8; assay: holdup assay; parameters: key: below the threshold = too weak to quantify, mostly under pKd 3.1 to 4; conditions: plain residues with an end cap or a label only (N-terminal biotin on a linker: ado-ado)

Binder | pKd
B1 | below the threshold
B2 | below the threshold
B3 | below the threshold
B4 | below the threshold

target: GORASP1, Q9BQQ3; assay: holdup assay; parameters: key: below the threshold = too weak to quantify, mostly under pKd 3.1 to 4; conditions: plain residues with an end cap or a label only (N-terminal biotin on a linker: ado-ado)
Sequence (Q9BQQ3 1-208): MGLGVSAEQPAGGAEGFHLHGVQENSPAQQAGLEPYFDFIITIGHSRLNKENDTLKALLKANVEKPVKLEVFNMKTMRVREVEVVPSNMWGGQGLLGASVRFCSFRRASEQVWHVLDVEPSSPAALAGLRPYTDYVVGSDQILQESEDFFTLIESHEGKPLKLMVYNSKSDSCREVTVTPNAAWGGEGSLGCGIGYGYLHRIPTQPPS

Binder | pKd
B1 | below the threshold
B2 | 3.59
B3 | below the threshold
B4 | 3.58

target: T7, DVL3, Q92997; assay: holdup assay; parameters: key: below the threshold = too weak to quantify, mostly under pKd 3.1 to 4; conditions: plain residues with an end cap or a label only (N-terminal biotin on a linker: ado-ado)

Binder | pKd
B1 | below the threshold
B2 | below the threshold
B3 | below the threshold
B4 | below the threshold

target: T8, DLG3_2, Q92796; assay: holdup assay; parameters: key: below the threshold = too weak to quantify, mostly under pKd 3.1 to 4; conditions: plain residues with an end cap or a label only (N-terminal biotin on a linker: ado-ado)

Binder | pKd
B1 | 4.08
B2 | 3.73
B3 | 4.6
B4 | 4.19

target: LNX1_2, Q8TBB1; assay: holdup assay; parameters: key: below the threshold = too weak to quantify, mostly under pKd 3.1 to 4; conditions: plain residues with an end cap or a label only (N-terminal biotin on a linker: ado-ado)
Sequence (Q8TBB1 371-470): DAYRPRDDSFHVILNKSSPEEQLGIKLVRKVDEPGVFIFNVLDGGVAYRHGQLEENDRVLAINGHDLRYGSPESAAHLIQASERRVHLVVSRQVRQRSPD

Binder | pKd
B1 | below the threshold
B2 | below the threshold
B3 | below the threshold
B4 | below the threshold

target: TJP1_2, Q07157; assay: holdup assay; parameters: key: below the threshold = too weak to quantify, mostly under pKd 3.1 to 4; conditions: plain residues with an end cap or a label only (N-terminal biotin on a linker: ado-ado)
Sequence (Q07157 181-274): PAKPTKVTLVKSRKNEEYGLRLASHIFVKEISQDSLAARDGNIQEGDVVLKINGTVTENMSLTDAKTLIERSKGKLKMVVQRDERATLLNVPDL

Binder | pKd
B1 | below the threshold
B2 | below the threshold
B3 | below the threshold
B4 | below the threshold

target: PICK1, Q9NRD5; assay: holdup assay; parameters: key: below the threshold = too weak to quantify, mostly under pKd 3.1 to 4; conditions: plain residues with an end cap or a label only (N-terminal biotin on a linker: ado-ado)
Sequence (Q9NRD5 17-115): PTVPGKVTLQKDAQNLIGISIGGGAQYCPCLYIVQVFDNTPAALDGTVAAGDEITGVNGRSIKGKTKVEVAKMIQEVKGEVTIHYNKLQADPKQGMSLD

Binder | pKd
B1 | below the threshold
B2 | below the threshold
B3 | below the threshold
B4 | below the threshold

target: T9, DFNB31_3, Q9P202; assay: holdup assay; parameters: key: below the threshold = too weak to quantify, mostly under pKd 3.1 to 4; conditions: plain residues with an end cap or a label only (N-terminal biotin on a linker: ado-ado)

Binder | pKd
B1 | 3.99
B2 | 4.23
B3 | 4
B4 | below the threshold

target: FRMPD4, Q14CM0; assay: holdup assay; parameters: key: below the threshold = too weak to quantify, mostly under pKd 3.1 to 4; conditions: plain residues with an end cap or a label only (N-terminal biotin on a linker: ado-ado)
Sequence (Q14CM0 67-160): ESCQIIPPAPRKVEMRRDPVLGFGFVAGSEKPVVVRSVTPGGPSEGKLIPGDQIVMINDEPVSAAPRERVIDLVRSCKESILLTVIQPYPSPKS

Binder | pKd
B1 | below the threshold
B2 | 4.26
B3 | below the threshold
B4 | below the threshold

target: T10, LNX2_2, Q8N448; assay: holdup assay; parameters: key: below the threshold = too weak to quantify, mostly under pKd 3.1 to 4; conditions: plain residues with an end cap or a label only (N-terminal biotin on a linker: ado-ado)

Binder | pKd
B1 | below the threshold
B2 | below the threshold
B3 | 3.5
B4 | 3.85

target: AHNAK1, Q09666; assay: holdup assay; parameters: key: below the threshold = too weak to quantify, mostly under pKd 3.1 to 4; conditions: plain residues with an end cap or a label only (N-terminal biotin on a linker: ado-ado)
Sequence (Q09666 4-100): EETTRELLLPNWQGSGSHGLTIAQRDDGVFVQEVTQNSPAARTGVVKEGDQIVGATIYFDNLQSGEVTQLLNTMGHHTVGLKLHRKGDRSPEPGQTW

Binder | pKd
B1 | below the threshold
B2 | below the threshold
B3 | below the threshold
B4 | below the threshold

target: T11, NHERF3_3, Q5T2W1; assay: holdup assay; parameters: key: below the threshold = too weak to quantify, mostly under pKd 3.1 to 4; conditions: plain residues with an end cap or a label only (N-terminal biotin on a linker: ado-ado)

Binder | pKd
B1 | below the threshold
B2 | below the threshold
B3 | below the threshold
B4 | below the threshold

target: T12, NHERF3_4, Q5T2W1; assay: holdup assay; parameters: key: below the threshold = too weak to quantify, mostly under pKd 3.1 to 4; conditions: plain residues with an end cap or a label only (N-terminal biotin on a linker: ado-ado)

Binder | pKd
B1 | 4.41
B2 | 5.4
B3 | below the threshold
B4 | 3.75

target: Inadl_2, Q8NI35; assay: holdup assay; parameters: key: below the threshold = too weak to quantify, mostly under pKd 3.1 to 4; conditions: plain residues with an end cap or a label only (N-terminal biotin on a linker: ado-ado)
Sequence (Q8NI35 238-335): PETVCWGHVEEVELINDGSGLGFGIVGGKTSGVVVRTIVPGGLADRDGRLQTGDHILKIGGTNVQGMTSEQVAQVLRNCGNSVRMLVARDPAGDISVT

Binder | pKd
B1 | below the threshold
B2 | below the threshold
B3 | below the threshold
B4 | below the threshold
